System: Escherichia coli TOP10
Assay: shrunken log2 fold change of peptide-encoding DNA abundance (4.5 h post-induction vs induction); higher = less antimicrobial activity (less host growth inhibition)
Conditions: time post-induction: 4.5 h; library: site-saturation at positions 5, 18, 19, 20
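Also: peptides expressed intracellularly from a pBAD plasmid library in pooled LB shake-flask culture, induced with 0.3% L-arabinose, DNA abundance read by NGS, three biological replicates, DESeq2 with apeglm shrinkage.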

Sequence | shrunken log2 fold change
RRIRDRPPRLPRPRPRPKCIPRP | -0.318
RRIRHRPPRLPRPRPRPESDPRP | -0.227
RRIRHRPPRLPRPRPRPTNQPRP | -0.425
RRIRYRPPRLPRPRPRPCCIPRP | -0.129
RRIRRRPPRLPRPRPRPPHHPRP | 1.09
RRIRDRPPRLPRPRPRPKMTPRP | 0.093
RRIRTRPPRLPRPRPRPQYSPRP | -0.056
RRIRHRPPRLPRPRPRPSCWPRP | -0.0721
RRIRHRPPRLPRPRPRPKWFPRP | -0.233
RRIRNRPPRLPRPRPRPCLVPRP | 0.0322
RRIRLRPPRLPRPRPRPPNSPRP | 0.0409
RRIRCRPPRLPRPRPRPENWPRP | 0.145
RRIRVRPPRLPRPRPRPHEWPRP | -0.276
RRIRARPPRLPRPRPRPDNAPRP | 0.311
RRIRMRPPRLPRPRPRPPMMPRP | 0.609
RRIRERPPRLPRPRPRPRNVPRP | -0.00139
RRIRNRPPRLPRPRPRPCMIPRP | -0.143
RRIRERPPRLPRPRPRPDPMPRP | -0.0562
RRIRPRPPRLPRPRPRPHNDPRP | -0.566
RRIRVRPPRLPRPRPRPMVCPRP | -0.062

Sequence | shrunken log2 fold change
RRIRYRPPRLPRPRPRPTCDPRP | -0.424
RRIRSRPPRLPRPRPRPVITPRP | -0.0353
RRIRRRPPRLPRPRPRPPWTPRP | 0.443
RRIRMRPPRLPRPRPRPADRPRP | 0.707
RRIRNRPPRLPRPRPRPIFFPRP | 0.0887
RRIRTRPPRLPRPRPRPDDKPRP | -0.294
RRIRYRPPRLPRPRPRPHIMPRP | -0.955
RRIRDRPPRLPRPRPRPFRFPRP | -0.0342
RRIRDRPPRLPRPRPRPRSGPRP | 0.276
RRIRMRPPRLPRPRPRPDWRPRP | 0.276
RRIRCRPPRLPRPRPRPKFKPRP | -0.287
RRIRGRPPRLPRPRPRPFHKPRP | -0.411
RRIRFRPPRLPRPRPRPLPEPRP | 0.224
RRIRWRPPRLPRPRPRPLLHPRP | 0.493
RRIRDRPPRLPRPRPRPLLIPRP | 0.338
RRIRMRPPRLPRPRPRPCHHPRP | -0.353
RRIRLRPPRLPRPRPRPAFEPRP | 0.36
RRIRPRPPRLPRPRPRPNFNPRP | -0.273
RRIRSRPPRLPRPRPRPIYSPRP | 0.101
RRIRGRPPRLPRPRPRPNMEPRP | 0.22

Sequence | shrunken log2 fold change
RRIRWRPPRLPRPRPRPYPLPRP | -0.0066
RRIRWRPPRLPRPRPRPDTFPRP | -0.0255
RRIRARPPRLPRPRPRPQYMPRP | -0.112
RRIRIRPPRLPRPRPRPCSQPRP | -0.226
RRIRVRPPRLPRPRPRPQTQPRP | 0.104
RRIRLRPPRLPRPRPRPAKNPRP | 0.00752
RRIRARPPRLPRPRPRPIQGPRP | 0.0518
RRIRFRPPRLPRPRPRPVADPRP | -0.00475
RRIRHRPPRLPRPRPRPQTIPRP | -0.793
RRIRNRPPRLPRPRPRPALDPRP | 0.113
RRIRTRPPRLPRPRPRPGADPRP | 0.301
RRIRARPPRLPRPRPRPHPYPRP | -0.484
RRIRPRPPRLPRPRPRPVQSPRP | 0.131
RRIRIRPPRLPRPRPRPCILPRP | -0.55
RRIRYRPPRLPRPRPRPCLMPRP | -0.225
RRIRYRPPRLPRPRPRPRQIPRP | -0.137
RRIRPRPPRLPRPRPRPMFYPRP | -0.449
RRIRDRPPRLPRPRPRPMKYPRP | 0.0311
RRIRMRPPRLPRPRPRPKYEPRP | 0.741
RRIRTRPPRLPRPRPRPPACPRP | 0.313

— the supplement of paper PMC9112550, “Optimization of the antimicrobial peptide Bac7 by deep mutational scanning” (BMC Biology, 2022)
